{
  "source": "patent US20150082475",
  "molecular_target": "light-harvesting complex II (LHCII) in thylakoids of the Arabidopsis thaliana stn7 stn8 double mutant",
  "data": [
    {"protein": "recombinant OsPSTOL1 (OsPSTOL1rec) (protein) MLLCQRASKNAPRIESFLQKQETSNPKRYTLSEVKRMTKSFAHKLGRGGFGTVYKGSLPDGREIAVKMLKDTKGDGEEFINEVAGISKTSHINVVNLLGFSLQGSKRALIYEYMPNGSLDRYSFGDSSVQGDNTLSWDRLFNIIVGIARGLEYLHCHCNIRIVHFDIKPQNILLAQDFCPKISDFGLSKLCHLKESRISINGLRGTPGYIAPEVFSRQYGSASSKSDVYSYGMVVLEMAGAKKNINVSTGSSSKYFPQWLYDNLDQFCCPTGEISSQTTDLVRKMVVVGLWCIQLVPTDRPSMREVLEMLESNGRDLPLPPKGLHHHHHH", "values": [
      {"measurement": "phosphorylation of LHCII, in vitro phosphorylation assay with phosphothreonine-specific immunoblot", "value": "recombinant OsPSTOL1 protein restores phosphorylation of the light-harvesting complex II (LHCII) in the Arabidopsis stn7 stn8 double mutant (lane 4)"}
    ]}
  ]
}
